Results: article PMC9898865

Target: SARS-CoV-2 S protein (residues 1-1212 with stabilizing mutations R684G, R685S, R678G, K998P and V999 (SARS-CoV-2) (UniProt P0DTC2))
Experiment: ELISA; ELISA-like solid-phase binding: ligands coated on 96-well plates in TBS, 6 h RT (S protein 20 µg/ml, vitronectin 5 µg/ml, fibrinogen 20 µg/ml, fibronectin 10 µg/ml); velcro-tagged integrins at 10 µg/ml in 20 mM Hepes, 150 mM NaCl, 1 mM MnCl2, pH 7.2, 2 h RT; detected by biotinylated anti-velcro antibody, streptavidin-HRP, ABTS, 405 nm

Substance: velcro-tagged integrin α5β1 (from UniProt P08648 42-995; P05556 21-728) (receptor)
- fold weaker than the binding to the physiological ligand (fibronectin): < 10 fold
